Experimental data as given in paper doi:10.1101/2023.06.12.544689 (bioRxiv, 2023).

T1: human claudin-4, biotinylated (hsCLDN-4-Biotin) (human, UniProt O14493 1-209)
T1 sequence: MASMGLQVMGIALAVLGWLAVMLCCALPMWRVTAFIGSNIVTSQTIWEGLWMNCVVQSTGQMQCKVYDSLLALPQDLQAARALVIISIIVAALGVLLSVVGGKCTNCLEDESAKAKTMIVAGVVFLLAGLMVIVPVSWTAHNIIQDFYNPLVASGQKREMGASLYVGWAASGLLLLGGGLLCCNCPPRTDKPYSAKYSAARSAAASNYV

T2: human claudin-9, biotinylated (hsCLDN-9-Biotin) (human, UniProt O95484)
T2 sequence: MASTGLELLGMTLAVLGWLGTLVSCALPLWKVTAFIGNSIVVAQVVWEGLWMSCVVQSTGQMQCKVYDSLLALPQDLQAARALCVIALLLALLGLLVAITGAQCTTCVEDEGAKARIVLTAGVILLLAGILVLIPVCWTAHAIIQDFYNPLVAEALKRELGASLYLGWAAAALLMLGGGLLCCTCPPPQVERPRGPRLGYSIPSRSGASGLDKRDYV

T3: mouse claudin-4, biotinylated (mmCLDN-4-Biotin) (mouse, UniProt O35054 1-210)
T3 sequence: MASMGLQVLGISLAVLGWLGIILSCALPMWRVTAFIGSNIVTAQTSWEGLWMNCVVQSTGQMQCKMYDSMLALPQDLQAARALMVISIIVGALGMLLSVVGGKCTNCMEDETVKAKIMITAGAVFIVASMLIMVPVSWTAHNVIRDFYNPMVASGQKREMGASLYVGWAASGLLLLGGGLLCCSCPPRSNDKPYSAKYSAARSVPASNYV

B1: COP-3 (antibody, V domains shown)
VH: EVQLVESGGGLVQPGGSLRLSCAASGFNFYSSSIHWVRQAPGKGLEWVAYISSYSGYTYYADSVKGRFTISADTSKNTAYLQMNSLRAEDTAVYYCARGYGYFDYNFSVGYALDYWGQGTLVTVSS
VL: DIQMTQSPSSLSASVGDRVTITCRASQSVSSAVAWYQQKPGKAPKLLIYSASSLYSGVPSRFSGSRSGTDFTLTISSLQPEDFATYYCQQSHPWYYPITFGQGTKVEIK
B2: cCpE-His10 (domain or fragment)
chain: STDIEKEILDLAAATERLNLTDALNSNPAGNLYDWRSSNSYPWTQKLNLHLTITATGQKYRILASKIVDFNIYSNNFNNLVKLEQSLGDGVKDHYVDISLDAGQYVLVMKANSSYSGNYPYSILFQKF

What was measured:
[1] = biological target: C-terminal domain of Clostridium perfringens enterotoxin (cCpE), tagless (Clostridium perfringens, UniProt P01558)
[2] = biological target: T1, human claudin-4, biotinylated …; test: BLI
[3] = biological target: T2, human claudin-9, biotinylated …; test: BLI
[4] = biological target: T3, mouse claudin-4, biotinylated …; test: BLI

| Binder | binding result [1] | Kd [2] | Kd [3] | Kd [4] |
| --- | --- | --- | --- | --- |
| B1 | binds | – | – | – |
| B2 | – | < 12 nM | < 12 nM | < 12 nM |
